Consider 20 variants from the RNAGym collection of RNA variant scans (doi:10.7554/elife.90254).

B1: LINE1-full (parent)
chain: UACGUAGGUGGUUUUCCCCUGAUAGUGCUAAGGGGGCCUGGAAGUUUGGACUGGGCAGAGCUCAACACAGCGUGGCAAAGUGGCUGUGGCUAGACUGCCUCUCUGGAUUCCUCGUCACUCAGCAGGGCAUCUCUGAGAGAAAUGCC

The data set covers variants of B1. The experiment in a line: self-cleavage, relative activity (ratio to wild type); higher = more cleavage; in vitro, sequencing; the parent is a self-cleaving ribozyme.
With UACGUAGGUGGUUUUCCCCUGAUAGAGCUAAGGGGGCCUGGAAGUUUGGACUGGGCAGAGCUCAACACAGCGUGGCAAGGUGGCUGUGGCUAGACUGCCUCUCUGGAUUCCUCGUCACUCAGCAGGGCAUCUCUGAGAGAAAUGCC [U26A A79G], the self-cleavage was 0.75.

Consider UACGUAGGUGGUUUUCCCCUGAUAGAGCUAAGGGGGCCUGGAAGUUUGGACUGGGCAGAGCUCAACACAGCGUGGCAUAGUGGCUGUGGCUAGACUGCCUCUCUGGAUUCCUCGUCACUCAGCAGGGCAUCUCUGAGAGAAAUGCC [U26A A78U], for which the self-cleavage was 1.61.

With UACGUAGGUGGUUUUCCCCUGAUAGAGCUAAGGGGGCCUGGAAGUUUGGACUGGGCAGAGCUCAACACAGCGUGGCAGAGUGGCUGUGGCUAGACUGCCUCUCUGGAUUCCUCGUCACUCAGCAGGGCAUCUCUGAGAGAAAUGCC [U26A A78G], the self-cleavage worked out at 0.74.

For the variant UACGUAGGUGGUUUUCCCCUGAUAGAGCUAAGGGGGCCUGGAAGUUUGGACUGGGCAGAGCUCAACACAGCGUGGCAAAGUGGCUGUGGCUUGACUGCCUCUCUGGAUUCCUCGUCACUCAGCAGGGCAUCUCUGAGAGAAAUGCC [U26A A92U], the self-cleavage was 0.61.

For UACGUAGGUGGUUUUCCCCUGAUAGAGCUAAGGGGGCCUGGAAGUUUGGACUGGGCAGAGCUCUACACAGCGUGGCAAAGUGGCUGUGGCUAGACUGCCUCUCUGGAUUCCUCGUCACUCAGCAGGGCAUCUCUGAGAGAAAUGCC [U26A A64U], the self-cleavage is 0.23.

Consider UACGUAGGUGGUUUUCCCCUGAUAGAGCUAAGGGGGCCUGGAAGUUUGGACUGGGCAGAGCUCGACACAGCGUGGCAAAGUGGCUGUGGCUAGACUGCCUCUCUGGAUUCCUCGUCACUCAGCAGGGCAUCUCUGAGAGAAAUGCC [U26A A64G], for which the self-cleavage amounted to 0.2.

Take UACGUAGGUGGUUUUCCCCUGAUAGAGCUAAGGGGGCCUGGAAGUUUGGACUGGGCAGAGCUCAACACAGCGUGGCGAAGUGGCUGUGGCUAGACUGCCUCUCUGGAUUCCUCGUCACUCAGCAGGGCAUCUCUGAGAGAAAUGCC [U26A A77G]: the self-cleavage is 1.84.

On to UACGUAGGUGGUUUUCCCCUGAUAGAGCUAAGGGGGCCUGGAAGUUUGGCCUGGGCAGAGCUCAACACAGCGUGGCAAAGUGGCUGUGGCUAGACUGCCUCUCUGGAUUCCUCGUCACUCAGCAGGGCAUCUCUGAGAGAAAUGCC [U26A A50C], for which the self-cleavage was 0.78.

UACGUAGGUGGUUUUCCCCUGAUAGAGCUGAGGGGGCCUGGAAGUUUGGACUGGGCAGAGCUCAACACAGCGUGGCAAAGUGGCUGUGGCUAGACUGCCUCUCUGGAUUCCUCGUCACUCAGCAGGGCAUCUCUGAGAGAAAUGCC [U26A A30G]: the self-cleavage was determined as 0.84.

For UACGUAGGUGGUUUUCCCCUGAUAUUGCUAAGGGGGCCUGGAAGUCUGGACUGGGCAGAGCUCAACACAGCGUGGCAAAGUGGCUGUGGCUAGACUGCCUCUCUGGAUUCCUCGUCACUCAGCAGGGCAUCUCUGAGAGAAAUGCC [G25U U46C], the self-cleavage stood at 1.74.

For the variant UACGUAGGUGGUUUUCCCCUGAUAUUGCUAAGGGGGCCUGGAAGGUUGGACUGGGCAGAGCUCAACACAGCGUGGCAAAGUGGCUGUGGCUAGACUGCCUCUCUGGAUUCCUCGUCACUCAGCAGGGCAUCUCUGAGAGAAAUGCC [G25U U45G], the self-cleavage came out at 0.93.

On to UACGUAGGUGGUUUUCCCCUGAUAGAGCUAAGGGGGCCUGGAAGUUUGGACUGGGCUGAGCUCAACACAGCGUGGCAAAGUGGCUGUGGCUAGACUGCCUCUCUGGAUUCCUCGUCACUCAGCAGGGCAUCUCUGAGAGAAAUGCC [U26A A57U], for which the self-cleavage was found to be 0.04.

Take UACGUAGGUGGUUUUCCCCUGAUAGAGCUAAGGGGGCCUGGAAGUUUGGACUGGGCAGAGCUCAACACAGCGUGGCAAAGUGGCUGUGGCUAGACUGCCUCUCUGGAUUCCUCGUCACUCAGCAGGGCAUCUCUGAGAGAAAUGCC [U26A]: the self-cleavage is 0.94.

For the variant UACGUAGGUGGUUUUCCCCUGAUAGAGCUAAGGGGGCCUGGAGGUUUGGACUGGGCAGAGCUCAACACAGCGUGGCAAAGUGGCUGUGGCUAGACUGCCUCUCUGGAUUCCUCGUCACUCAGCAGGGCAUCUCUGAGAGAAAUGCC [U26A A43G], the self-cleavage was found to be 0.97.

For UACGUAGGUGGUUUUCCCCUGAUAGAGCUAAGGGGGCCUGGAUGUUUGGACUGGGCAGAGCUCAACACAGCGUGGCAAAGUGGCUGUGGCUAGACUGCCUCUCUGGAUUCCUCGUCACUCAGCAGGGCAUCUCUGAGAGAAAUGCC [U26A A43U], the self-cleavage came out at 0.89.

UACGUAGGUGGUUUUCCCCUGAUAGAGCUAAGGGGGCCUGGAAGUUUGGACUGGGCAGAGCUCAACGCAGCGUGGCAAAGUGGCUGUGGCUAGACUGCCUCUCUGGAUUCCUCGUCACUCAGCAGGGCAUCUCUGAGAGAAAUGCC [U26A A67G]: the self-cleavage is 0.4.

For the variant UACGUAGGUGGUUUUCCCCUGAUAGAGCUAGGGGGGCCUGGAAGUUUGGACUGGGCAGAGCUCAACACAGCGUGGCAAAGUGGCUGUGGCUAGACUGCCUCUCUGGAUUCCUCGUCACUCAGCAGGGCAUCUCUGAGAGAAAUGCC [U26A A31G], the self-cleavage is 0.81.

Consider UACGUAGGUGGUUUUCCCCUGAUAGAGCUACGGGGGCCUGGAAGUUUGGACUGGGCAGAGCUCAACACAGCGUGGCAAAGUGGCUGUGGCUAGACUGCCUCUCUGGAUUCCUCGUCACUCAGCAGGGCAUCUCUGAGAGAAAUGCC [U26A A31C], for which the self-cleavage came out at 1.04.

On to UACGUAGGUGGUUUUCCCCUGAUAGAGCUAAGGGGGCCUGGAAGUUUGGACUGGGCAGGGCUCAACACAGCGUGGCAAAGUGGCUGUGGCUAGACUGCCUCUCUGGAUUCCUCGUCACUCAGCAGGGCAUCUCUGAGAGAAAUGCC [U26A A59G], for which the self-cleavage is 0.06.

Regarding UACGUAGGUGGUUUUCCCCUGAUAUUGCUAAGGGGGCCAGGAAGUUUGGACUGGGCAGAGCUCAACACAGCGUGGCAAAGUGGCUGUGGCUAGACUGCCUCUCUGGAUUCCUCGUCACUCAGCAGGGCAUCUCUGAGAGAAAUGCC [G25U U39A], the self-cleavage was 0.31.
